Laboratory results as given in patent publication US20160002325A1 (VACCINEX, published 2016).

T1: mouse CXCL13 (mouse, UniProt O55038 22-109)
T1 construct: Recombinant protein bought from Peprotech (#250-24); In some assays native mouse CXCL13 from organ extracts of TNF-alpha transgenic mice was used; this is said in the assay field; also called recombinant mouse CXCL13; rmuCXCL13
T1 sequence: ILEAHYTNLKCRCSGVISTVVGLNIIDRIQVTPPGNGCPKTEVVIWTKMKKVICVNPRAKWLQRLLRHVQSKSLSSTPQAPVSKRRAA

T2: human CXCL13 (human, UniProt O43927 23-109)
T2 construct: Recombinant protein bought from Peprotech (#300-47); In some assays native human CXCL13 from supernatant of IFN-gamma-stimulated THP-1 cells was used; this is said in the assay field; also called recombinant human CXCL13; rhuCXCL13
T2 sequence: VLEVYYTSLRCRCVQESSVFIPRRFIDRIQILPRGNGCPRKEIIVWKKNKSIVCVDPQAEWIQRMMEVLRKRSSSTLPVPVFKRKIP

T3: cynomolgus monkey CXCL13 (cynomolgus monkey, UniProt O43927 23-104 (human entry), limits assumed)
T3 construct: Recombinant; also called recombinant cynomolgus monkey CXCL13
T3 chain: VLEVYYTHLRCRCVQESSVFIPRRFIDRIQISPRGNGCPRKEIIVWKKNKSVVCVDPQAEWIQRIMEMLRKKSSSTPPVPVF

T4: human CXCL13 15-mer peptide YTSLRCRCVQESSVF (human)
T4 peptide: YTSLRCRCVQESSVF


Experiments:
mouse CXCL13 [1] = molecular target: T1, mouse CXCL13; test: Capture Epitope Competition ELISA: native mouse CXCL13 (TNF-Tg organ extract) captured with MAb 470; unlabeled 3D2 inhibits binding of biotin-3D2; percent maximal response, four-parameter fit
Experimental: (§1) Mouse CXCL13-rich organ extracts from TNF-alpha transgenic mice were used as sources of native mouse CXCL13. Mouse CXCL13 (1:40 dilution of TNF-Tg organ extract or 0.5 nM rmuCXCL13) was captured with 33 nM MAb 470 and detected with 3.3 nM biotin-3D2. The chemokine from the extracts (and recombinant mouse CXCL13 which was used as a control) was captured on the ELISA plate by MAb 470. The plate was then incubated with biotinylated 3D2 in the presence of various amounts of unlabeled 3D2.

mouse CXCL13 [2] = molecular target: T1, mouse CXCL13; test: Capture Epitope Competition ELISA: native mouse CXCL13 captured with MAb 470; unlabeled competitor inhibits binding of 3.3 nM biotin-3D2; four-parameter fit
Experimental: For mouse ELISA, mouse CXCL13 (1:40 dilution of TNF-Tg organ extract) was captured with 33 nM MAb 470 and detected with 3.3 nM biotin-3D2. Each data point represents an average of duplicate measurements from one of at least three independent experiments. […] Curves shown in FIGS. 17A-B were fitted using four-parameter sigmoidal curve fit (R²=0.99).

human CXCL13 [3] = molecular target: T2, human CXCL13; test: Capture Epitope Competition ELISA: recombinant human CXCL13 captured with MAb 801; unlabeled 3D2 inhibits binding of biotin-3C9; percent maximal response, four-parameter fit
Experimental: (§2) Capture Epitope Competition ELISA was used to assess 3D2 binding to native human and mouse CXCL13. In this assay, native human CXCL13 was obtained from supernatants collected from human IFN-gamma-stimulated THP-1 cells. […] The plate was then incubated with biotinylated 3C9 in the presence of various amounts of unlabeled 3D2. […] As evident from FIG. 3A, 3D2 strongly bound to both native and recombinant human CXCL13 producing statistically similar EC50 values.

human CXCL13 [4] = molecular target: T2, human CXCL13; test: SPR (Biacore), recombinant human CXCL13; printed as Affinity (Biacore), nM
mouse CXCL13 [5] = molecular target: T1, mouse CXCL13; test: SPR (Biacore), recombinant mouse CXCL13; printed as Affinity (Biacore), nM
human CXCL13 [6] = molecular target: T2, human CXCL13; test: SPR (BIACORE), recombinant human CXCL13, methods similar to Example 1; printed as Affinity, nM
Experimental: (§3) Chemokines were immobilized on a C1 chip in Acetate buffer (pH=5) with human CXCL13 at 1 μg/ml, mouse CXCL13 at 0.3 μg/ml, and negative control SDF-1α at 0.5 μg/ml. 3D2 and 3C9 were diluted in HBS-EP buffer by two-fold from 100 nM to 0.78 nM and from 38 nM to […].

cynomolgus monkey CXCL13 [7] = molecular target: T3, cynomolgus monkey CXCL13; test: Specificity ELISA on plate-coated recombinant cynomolgus monkey CXCL13, OD 450/570, four-parameter sigmoidal fit
Experimental: (§4) Hybridoma clones were screened by ELISA for binding to human and mouse CXCL13 protein. ELISA plates were coated with about 100 nM of human (Peprotech: #300-47) or mouse (Peprotech: #250-24) CXCL13 protein overnight at room temperature (RT). […] The plates were washed and developed with tetramethylbenzidine (TMB) substrate reagents A and B (BD Biosciences: #555214) mixed at equal volumes for 15 minutes in the dark and read at 450/570 wavelengths. Two positive hybridoma clones, labelled “3D2” and “3C9”, both mouse IgG1 antibodies, were selected for further characterization.
(§5) Specificity of the hybridoma-produced mouse anti-human antibodies, 3D2 and 3C9, was assessed by ELISA (as described above) on a panel that included recombinant chemokines (Peprotech: mouse and human CXCL13, human IL-8/CXCL8 (#200-08), human IP-10/CXCL10 (#200-10), human MIG/CXCL9 (#300-26), human SDF-1alpha/CXCL12 (#300-28A) and cynomolgus monkey CXCL13) as well as several non-specific control antigens (recombinant human C35, streptavidin (Thermo: #21122), bovine serum albumin (BSA) (SeraCore: #AP-4510-01)), human serum albumin (HAS) (Sigma: #A8763), insulin (Gibco: #12585-014), and hemoglobin (Sigma: #H7379).

human CXCL13 [8] = molecular target: T2, human CXCL13; test: Capture Epitope Competition ELISA: native human CXCL13 (THP-1 supernatant) captured with MAb 801; unlabeled 3D2 inhibits binding of biotin-3C9; percent maximal response, four-parameter fit
Experimental: as §2

mouse CXCL13 [9] = molecular target: T1, mouse CXCL13; test: Capture Epitope Competition ELISA: recombinant mouse CXCL13 captured with MAb 470; unlabeled 3D2 inhibits binding of biotin-3D2; percent maximal response, four-parameter fit
Experimental: as §1

mouse CXCL13 [10] = molecular target: T1, mouse CXCL13; test: SPR (BIACORE), recombinant mouse CXCL13, methods similar to Example 1; printed as Affinity, nM
Experimental: as §3

human CXCL13 [11] = molecular target: T2, human CXCL13; test: Specificity ELISA on recombinant human CXCL13 coated at 100 nM, OD 450/570, four-parameter sigmoidal fit
Experimental: (§6) Each data point represents mean of triplicate measurements. EC50 values were calculated from four-parameter sigmoidal curve fit (R² for the curves that produced EC50 values were 0.99).

human CXCL13 [12] = molecular target: T2, human CXCL13; test: Specificity ELISA on plate-coated recombinant human CXCL13, OD 450/570, four-parameter sigmoidal fit
Experimental: as §4, §5

mouse CXCL13 [13] = molecular target: T1, mouse CXCL13; test: SPR (BIACORE), recombinant chemokine immobilized on C1 chip, antibody in solution; printed as Affinity, nM
Experimental: as §3

human CXCL13 [14] = molecular target: T2, human CXCL13; test: as above
Experimental: as §3

mouse CXCL13 [15] = molecular target: T1, mouse CXCL13; test: Specificity ELISA on plate-coated recombinant mouse CXCL13, OD 450/570, four-parameter sigmoidal fit
Experimental: as §4, §5

cynomolgus monkey CXCL13 [16] = molecular target: T3, cynomolgus monkey CXCL13; test: Specificity ELISA on recombinant cynomolgus monkey CXCL13 coated at 100 nM, OD 450/570, four-parameter sigmoidal fit
Experimental: as §6

cynomolgus monkey CXCL13 [17] = molecular target: T3, cynomolgus monkey CXCL13; test: as above
human CXCL13 [18] = molecular target: T2, human CXCL13; test: Specificity ELISA on recombinant human CXCL13 coated at 100 nM, OD 450/570, four-parameter sigmoidal fit; remark: listed apart in the source
[19] = molecular target: T4, human CXCL13 15-mer peptide …; test: ProArray Ultra peptide microarray of 15-mer human CXCL13 peptides, fluorescent secondary antibody
Experimental: In this project, the determination of peptide-antibody binding was performed by incubation of serum samples with a ProArray Ultra™ peptide microarray. This peptide array was generated as 15-mer peptides overlapping by 10 amino acids from the human CXCL13 primary sequence. The CXCL13 array contained sixteen unique peptides. […] After several washing steps the ProArray Ultra™ arrays were dried and scanned using a high-resolution fluorescence microarray scanning system.

mouse CXCL13 [20] = molecular target: T1, mouse CXCL13; test: Specificity ELISA on recombinant mouse CXCL13 coated at 100 nM, OD 450/570, four-parameter sigmoidal fit
Experimental: For specificity ELISA, recombinant human, cynomolgus monkey, and mouse CXCL13 were each coated at 100 nM. […] The data points for each chemokine represents the mean of triplicate measurements. EC50 values were calculated from four-parameter sigmoidal curve fit (R² for the curves that produced EC50 values were 0.99).

mouse CXCL13 [21] = molecular target: T1, mouse CXCL13; test: as above; remark: listed apart in the source
Experimental: as §6

Row | Binder | EC50 (mouse CXCL13 [2]) [nM] | Kd (human CXCL13 [4]) [nM] | Kd (mouse CXCL13 [5]) [nM] | Kd (human CXCL13 [6]) [nM] | Kd (mouse CXCL13 [10]) [nM] | EC50 (human CXCL13 [11]) [nM] | EC50 (cynomolgus monkey CXCL13 [16]) [nM] | EC50 (cynomolgus monkey CXCL13 [17]) [nM] | EC50 (human CXCL13 [18]) [nM] | EC50 (mouse CXCL13 [20]) [nM] | further results
1 | 3D2 (antibody, mouse IgG1, V domains shown, Hybridoma-produced mouse IgG1; also called mouse anti-human CXCL13 antibody 3D2; H1609/L0293) VH: EVQLQESGPGILQPSQTLNLTCSFSGFSLSTFGMGVGWIRQPSGKGLEWLAHIWWDDDRRYNPALKSRLTISKETSKNQVFLKIANVDTADTATYYCTRIAGYYGSRDWFAYWGQGTTVTVSS VL: DIVLTQSPASLAVSLGQRATISCRASESVDNSGISFMHWYQQKPGQPPKLLIFRASDLESGIPARFSGSGSRTDFTLTVNPVETDDVATYFCQQSNKDPWTFGGGTKLEIK | 11.2 | 13 | 159 | 13 | 159 | 0.2 | 8.9 |  |  |  | EC50 (mouse CXCL13 [1]): 11.2 nM; EC50 (human CXCL13 [3]): 0.46 nM; EC50 (cynomolgus monkey CXCL13 [7]): 0.8 nM; EC50 (human CXCL13 [8]): 0.13 nM; EC50 (mouse CXCL13 [9]): 12.5 nM; EC50 (human CXCL13 [12]): 1.1 nM; Kd (mouse CXCL13 [13]): 159 nM; Kd (human CXCL13 [14]): 12.9 nM; EC50 (mouse CXCL13 [15]): 0.98 nM
2 | MAb 1476 (antibody, V domains shown, Chimeric IgG1: 3D2 variable domains (H1609/L0293) on human gamma 1 heavy chain constant and human kappa constant; also called chimeric 3D2) VH: EVQLQESGPGILQPSQTLNLTCSFSGFSLSTFGMGVGWIRQPSGKGLEWLAHIWWDDDRRYNPALKSRLTISKETSKNQVFLKIANVDTADTATYYCTRIAGYYGSRDWFAYWGQGTTVTVSS VL: DIVLTQSPASLAVSLGQRATISCRASESVDNSGISFMHWYQQKPGQPPKLLIFRASDLESGIPARFSGSGSRTDFTLTVNPVETDDVATYFCQQSNKDPWTFGGGTKLEIK |  | 11.4 |  |  |  |  |  | 0.51 | 0.07 |  | 
3 | MAb 5261 (antibody, V domains shown, Humanized) VH: QVQLQESGPGLVKPSETLSLTCTVSGFSLSTFGMGVGWIRQPPGKGLEWIAHIWWDDDRRYNPALKSRVTISKDTSKNQFSLKLSSVTAADTAVYYCARIAGYYGSRDWFAYWGQGTTVTVSS VL: DIQMTQSPSSLSASVGDRVTITCRASESVDNMGISFMHWYQQKPGKAPKLLIFRASDLESGVPSRFSGSGSGTDFTLTISSLQPEDFATYYCQQSNKDPWTFGQGTKLEIK | 6 | 5.1 | 8.1 | 5.1 | 8.1 |  |  | 0.04 | 0.03 | 0.09 | binding result [19]: binds
4 | MAb 5378 (antibody, V domains shown, also called H5188/L5153) VH: QVQLQESGPGLVKPSETLSLTCTVSGFSLSTFGMGVGWIRQPPGKGLEWIAHIWWDDDRRYNPALKSRVTISKDTSKNQFSLKLSSVTAADTAVYYCARIAGYYGSRDWFAYWGQGTTVTVSS VL: DIQMTQSPSSLSASVGDRVTITCRASESVDNMGISFMHWYQQKPGKAPKLLIFRASDLESGVPSRFSGSGSGTDFTLTISSLQPEDFATYYCQQSNKDPWTFGQGTKLEIK |  |  |  | 4.5 | 4.2 | 0.2 | 0.3 |  |  |  | EC50 (mouse CXCL13 [21]): 3.4 nM
5 | MAb 5080 (antibody, human IgG1, V domains shown, also called H2177/L5055) VH: QVQLQESGPGLVKPSETLSLTCTVSGFSLSTFGMGVGWIRQPPGKGLEWIAHIWWDDDRRYNPALKSRVTISKDTSKNQFSLKLSSVTAADTAVYYCARIAGYYGSRDWFAYWGQGTTVTVSS VL: DIQMTQSPSSLSASVGDRVTITCRASESVDNSGISFMHWYQQKPGKAPKLLIFRASDLESGVPSGFSGSGSRTDFTLTISSLQPEDFATYYCQQSNKDPWTFGQGTKLEIK | 24.3 | 14.5 | 59.2 |  |  |  |  | 0.06 | 0.03 | 2.1 | 
